Results published in patent publication US20230129812A1 (ACCELERON PHARMA, published 2023).
One block for each binder: values may come before it.

Columns and labels:
BMP9 = target: T1, BMP9 (UniProt Q9UK05 320-429); experiment: SPR (Biacore); receptor-Fc captured by anti-Fc antibody, ligand injected
T1 construct: also called GDF2
T1 sequence (looked up): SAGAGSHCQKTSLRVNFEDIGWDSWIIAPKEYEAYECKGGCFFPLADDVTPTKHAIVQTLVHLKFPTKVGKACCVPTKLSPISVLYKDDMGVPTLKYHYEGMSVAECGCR
Method: (§1) A Biacore™-based binding assay was used to compare ligand binding selectivity of the ALK4-Fc:ActRIIB-Fc heterodimeric complex described above with that of ActRIIB-Fc and ALK4-Fc homodimer complexes. The ALK4-Fc:ActRIeB-Fc heterodimer, […], and ALK4-Fc homodimer were independently captured onto the system using an anti-Fc antibody. Ligands were injected and allowed to flow over the captured receptor protein. Results are summarized in Table 13 below, in which ligand off-rates (kd) most indicative of effective polypeptides are denoted in bold.

activin A [1] = target: T2, activin A (UniProt P08476 311-426); experiment: as above
T2 construct: also called ActA
T2 sequence (looked up): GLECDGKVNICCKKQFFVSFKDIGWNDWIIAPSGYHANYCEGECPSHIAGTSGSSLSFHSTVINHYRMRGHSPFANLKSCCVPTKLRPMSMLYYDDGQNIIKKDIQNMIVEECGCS
Method: as §1

GDF3 = target: T3, GDF3 (UniProt Q9NR23 251-364); experiment: as above
T3 construct: also called VGR2
T3 sequence (looked up): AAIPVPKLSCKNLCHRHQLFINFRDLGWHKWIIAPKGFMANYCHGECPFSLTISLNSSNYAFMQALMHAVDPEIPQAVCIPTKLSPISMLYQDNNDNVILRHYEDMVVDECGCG
Method: as §1

GDF8 [2] = target: T4, GDF8 (UniProt O14793 267-375); experiment: as above
T4 construct: also called myostatin
T4 sequence (looked up): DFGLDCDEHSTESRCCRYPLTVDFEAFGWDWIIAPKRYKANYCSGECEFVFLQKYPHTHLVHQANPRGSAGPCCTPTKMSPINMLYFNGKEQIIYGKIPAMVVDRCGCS
Method: as §1

GDF11 [3] = target: T5, GDF11 (UniProt O95390 299-407); experiment: as above
T5 construct: also called BMP11
T5 sequence (looked up): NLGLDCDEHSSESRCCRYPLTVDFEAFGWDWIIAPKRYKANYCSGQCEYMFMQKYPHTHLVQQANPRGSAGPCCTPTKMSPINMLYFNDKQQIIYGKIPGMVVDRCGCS
Method: as §1

BMP10 = target: T6, BMP10 (UniProt O95393 317-424); experiment: as above
T6 sequence (looked up): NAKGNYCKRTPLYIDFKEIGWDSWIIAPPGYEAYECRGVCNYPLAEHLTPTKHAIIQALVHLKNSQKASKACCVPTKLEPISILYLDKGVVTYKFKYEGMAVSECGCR
Method: as §1

activin B = target: T7, activin B (UniProt P09529 293-407); experiment: as above
T7 sequence (looked up): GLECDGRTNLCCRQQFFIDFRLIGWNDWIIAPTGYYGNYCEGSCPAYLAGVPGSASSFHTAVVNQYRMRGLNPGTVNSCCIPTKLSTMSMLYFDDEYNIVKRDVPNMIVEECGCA
Method: as §1

BMP6 = target: T8, BMP6 (UniProt P22004 375-513, limits assumed); experiment: as above
T8 sequence (looked up): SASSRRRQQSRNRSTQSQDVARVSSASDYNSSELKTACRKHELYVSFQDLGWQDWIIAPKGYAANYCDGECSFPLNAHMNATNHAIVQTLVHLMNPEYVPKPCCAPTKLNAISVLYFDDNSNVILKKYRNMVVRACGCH
Method: as §1

activin A [4] = target: T2, activin A; experiment: SPR (Biacore); receptor-Fc captured by anti-hFc antibody, ligand injected
Method: (§2) Binding of certain ActRIIB-Fc proteins and ActRIIB variant Fc fusion polypeptides to ligands was tested in a Biacore™ assay.
(§3) The ActRIIB-Fc variants or wild-type protein were captured onto the system using an anti-hFc antibody. Ligands were injected and flowed over the captured receptor proteins.

GDF8 [5] = target: T4, GDF8; experiment: as above
Method: as §2, §3

GDF11 [6] = target: T5, GDF11; experiment: as above
Method: as §2, §3

activin A [7] = target: T2, activin A; experiment: SPR (Biacore); ligand coupled, receptor flowed over (as reported in WO2006/012627)
Description: (§4) Other variants have been generated and tested, as reported in WO2006/012627 (incorporated herein by reference in its entirety). See, e.g., pp. 59-60, using ligands coupled to the device and flowing receptor over the coupled ligands. […] Table 11 showing data with respect to these variants is reproduced below: […]

GDF11 [8] = target: T5, GDF11; experiment: SPR (Biacore); ligand coupled, receptor flowed over (as reported in WO2006/012627); -- means <1/5 WT binding
Description: as §4

Kd (BMP9): 0.077 nM
koff (BMP9): 0.0011 s⁻¹
kon (BMP9): 1.4e+07 M⁻¹ s⁻¹
Kd (activin A [1]): 0.019 nM
koff (activin A [1]): 0.00023 s⁻¹
kon (activin A [1]): 1.2e+07 M⁻¹ s⁻¹
Kd (GDF3): 1.5 nM
koff (GDF3): 0.0022 s⁻¹
kon (GDF3): 1.4e+06 M⁻¹ s⁻¹
Kd (GDF8 [2]): 0.28 nM
koff (GDF8 [2]): 0.00023 s⁻¹
kon (GDF8 [2]): 830000 M⁻¹ s⁻¹
Kd (GDF11 [3]): 0.002 nM
koff (GDF11 [3]): 0.00011 s⁻¹
kon (GDF11 [3]): 5e+07 M⁻¹ s⁻¹
Kd (BMP10): 0.011 nM
koff (BMP10): 0.00026 s⁻¹
kon (BMP10): 2.3e+07 M⁻¹ s⁻¹
Kd (activin B): 0.02 nM
koff (activin B): 0.0001 s⁻¹
kon (activin B): 5.1e+06 M⁻¹ s⁻¹
Kd (BMP6): 0.19 nM
koff (BMP6): 0.0068 s⁻¹
kon (BMP6): 3.2e+07 M⁻¹ s⁻¹
B1: ActRIIB-Fc homodimer (Fc fusion)
chain: GRGEAETRECIYYNANWELERTNQSGLERCEGEQDKRLHCYASWRNSSGTIELVKKGCWLDDFNCYDRQECVATEENPQVYFCCCEGNFCNERFTHLPEAGGPEVTYEPPPTAPTGGGTHTCPPCPAPELLGGPSVFLFPPKPKDTLMISRTPEVTCVVVDVSHEDPEVKFNWYVDGVEVHNAKTKPREEQYNSTYRVVSVLTVLHQDWLNGKEYKCKVSNKALPVPIEKTISKAKGQPREPQVYTLPPSREEMTKNQVSLTCLVKGFYPSDIAVEWESNGQPENNYKTTPPVLDSDGSFFLYSKLTVDKSRWQQGNVFSCSVMHEALHNHYTQKSLSLSPGK
notes: also called ActRIIB-Fc:ActRIIB-Fc homodimer

Kd (activin A [4]): 0.0476 nM
koff (activin A [4]): 0.000325 s⁻¹
kon (activin A [4]): 6.82e+06 M⁻¹ s⁻¹
Kd (GDF8 [5]): 0.21 nM
koff (GDF8 [5]): 4.71e-05 s⁻¹
Kd (GDF11 [6]): 0.0356 nM
koff (GDF11 [6]): 2.41e-05 s⁻¹
B5: ActRIIB(R64K 20-134)-hFc (Fc fusion)
chain: GRGEAETRECIYYNANWELERTNQSGLERCEGEQDKRLHCYASWKNSSGTIELVKKGCWLDDFNCYDRQECVATEENPQVYFCCCEGNFCNERFTHLPEAGGPEVTYEPPPTAPTGGGTHTCPPCPAPELLGGPSVFLFPPKPKDTLMISRTPEVTCVVVDVSHEDPEVKFNWYVDGVEVHNAKTKPREEQYNSTYRVVSVLTVLHQDWLNGKEYKCKVSNKALPVPIEKTISKAKGQPREPQVYTLPPSREEMTKNQVSLTCLVKGFYPSDIAVEWESNGQPENNYKTTPPVLDSDGSFFLYSKLTVDKSRWQQGNVFSCSVMHEALHNHYTQKSLSLSPGK

binding result (activin A [7]): no binding
binding relative to WT (GDF11 [8]): < 0.2 fold
B7: Soluble ActRIIB-Fc D80I (Table 11) (Fc fusion, UniProt Q13705 19-119, looked up, not shown: a dimerising Fc or GST)
chain: SGRGEAETRECIYYNANWELERTNQSGLERCEGEQDKRLHCYASWANSSGTIELVKKGCWLIDFNCYDRQECVATEENPQVYFCCCEGNFCNERFTHLPEA

binding result (activin A [7]): no binding
binding relative to WT (GDF11 [8]): < 0.2 fold
B8: Soluble ActRIIB-Fc K74I (Table 11) (Fc fusion, UniProt Q13705 19-119, looked up, not shown: a dimerising Fc or GST)
chain: SGRGEAETRECIYYNANWELERTNQSGLERCEGEQDKRLHCYASWANSSGTIELVIKGCWLDDFNCYDRQECVATEENPQVYFCCCEGNFCNERFTHLPEA

binding result (activin A [7]): no binding
binding relative to WT (GDF11 [8]): < 0.2 fold
B9: Soluble ActRIIB-Fc K74F (Table 11) (Fc fusion, UniProt Q13705 19-119, looked up, not shown: a dimerising Fc or GST)
chain: SGRGEAETRECIYYNANWELERTNQSGLERCEGEQDKRLHCYASWANSSGTIELVFKGCWLDDFNCYDRQECVATEENPQVYFCCCEGNFCNERFTHLPEA

binding result (activin A [7]): no binding
binding relative to WT (GDF11 [8]): < 0.2 fold
B10: Soluble ActRIIB-Fc K74Y (Table 11) (Fc fusion, UniProt Q13705 19-119, looked up, not shown: a dimerising Fc or GST)
chain: SGRGEAETRECIYYNANWELERTNQSGLERCEGEQDKRLHCYASWANSSGTIELVYKGCWLDDFNCYDRQECVATEENPQVYFCCCEGNFCNERFTHLPEA

Further lines, the binder ahead of its results:

B2: ActRIIB(20-134)-hFc (Fc fusion)
chain: GRGEAETRECIYYNANWELERTNQSGLERCEGEQDKRLHCYASWRNSSGTIELVKKGCWLDDFNCYDRQECVATEENPQVYFCCCEGNFCNERFTHLPEAGGPEVTYEPPPTAPTGGGTHTCPPCPAPELLGGPSVFLFPPKPKDTLMISRTPEVTCVVVDVSHEDPEVKFNWYVDGVEVHNAKTKPREEQYNSTYRVVSVLTVLHQDWLNGKEYKCKVSNKALPVPIEKTISKAKGQPREPQVYTLPPSREEMTKNQVSLTCLVKGFYPSDIAVEWESNGQPENNYKTTPPVLDSDGSFFLYSKLTVDKSRWQQGNVFSCSVMHEALHNHYTQKSLSLSPGK
notes: also called ActRIIB-hFc
Kd (activin A [4]): 0.0268 nM
koff (activin A [4]): 0.000159 s⁻¹
kon (activin A [4]): 5.94e+06 M⁻¹ s⁻¹
Kd (GDF8 [5]): 0.0935 nM
koff (GDF8 [5]): 3.45e-05 s⁻¹
Kd (GDF11 [6]): 0.0842 nM
koff (GDF11 [6]): 0.000113 s⁻¹
kon (GDF11 [6]): 1.34e+06 M⁻¹ s⁻¹

B3: ActRIIB(A24N 20-134)-hFc (Fc fusion)
chain: GRGENETRECIYYNANWELERTNQSGLERCEGEQDKRLHCYASWRNSSGTIELVKKGCWLDDFNCYDRQECVATEENPQVYFCCCEGNFCNERFTHLPEAGGPEVTYEPPPTAPTGGGTHTCPPCPAPELLGGPSVFLFPPKPKDTLMISRTPEVTCVVVDVSHEDPEVKFNWYVDGVEVHNAKTKPREEQYNSTYRVVSVLTVLHQDWLNGKEYKCKVSNKALPVPIEKTISKAKGQPREPQVYTLPPSREEMTKNQVSLTCLVKGFYPSDIAVEWESNGQPENNYKTTPPVLDSDGSFFLYSKLTVDKSRWQQGNVFSCSVMHEALHNHYTQKSLSLSPGK
Kd (activin A [4]): 0.104 nM
koff (activin A [4]): 0.000346 s⁻¹
kon (activin A [4]): 3.34e+06 M⁻¹ s⁻¹
Kd (GDF11 [6]): 0.0519 nM
koff (GDF11 [6]): 6.35e-05 s⁻¹

B4: ActRIIB(L79D 20-134)-hFc (Fc fusion)
chain: GRGEAETRECIYYNANWELERTNQSGLERCEGEQDKRLHCYASWRNSSGTIELVKKGCWDDDFNCYDRQECVATEENPQVYFCCCEGNFCNERFTHLPEAGGPEVTYEPPPTAPTGGGTHTCPPCPAPELLGGPSVFLFPPKPKDTLMISRTPEVTCVVVDVSHEDPEVKFNWYVDGVEVHNAKTKPREEQYNSTYRVVSVLTVLHQDWLNGKEYKCKVSNKALPVPIEKTISKAKGQPREPQVYTLPPSREEMTKNQVSLTCLVKGFYPSDIAVEWESNGQPENNYKTTPPVLDSDGSFFLYSKLTVDKSRWQQGNVFSCSVMHEALHNHYTQKSLSLSPGK
Kd (GDF8 [5]): 2.15 nM
koff (GDF8 [5]): 0.00083 s⁻¹
Kd (GDF11 [6]): 0.655 nM
koff (GDF11 [6]): 0.000439 s⁻¹

B6: ActRIIB(L79E 20-134)-hFc (Fc fusion)
chain: GRGEAETRECIYYNANWELERTNQSGLERCEGEQDKRLHCYASWRNSSGTIELVKKGCWEDDFNCYDRQECVATEENPQVYFCCCEGNFCNERFTHLPEAGGPEVTYEPPPTAPTGGGTHTCPPCPAPELLGGPSVFLFPPKPKDTLMISRTPEVTCVVVDVSHEDPEVKFNWYVDGVEVHNAKTKPREEQYNSTYRVVSVLTVLHQDWLNGKEYKCKVSNKALPVPIEKTISKAKGQPREPQVYTLPPSREEMTKNQVSLTCLVKGFYPSDIAVEWESNGQPENNYKTTPPVLDSDGSFFLYSKLTVDKSRWQQGNVFSCSVMHEALHNHYTQKSLSLSPGK
Kd (GDF8 [5]): 2.41 nM
koff (GDF8 [5]): 0.0009 s⁻¹
Kd (GDF11 [6]): 0.716 nM
koff (GDF11 [6]): 0.000274 s⁻¹
